# Assay results as given in US20160222105A1 (MacroGenics, published 2016).
# T1: human gpA33 (human, UniProt Q99795 22-235, limits assumed)
# T1 construct: There it is printed only as gpA33; also called A33 antigen
# T1 sequence (looked up): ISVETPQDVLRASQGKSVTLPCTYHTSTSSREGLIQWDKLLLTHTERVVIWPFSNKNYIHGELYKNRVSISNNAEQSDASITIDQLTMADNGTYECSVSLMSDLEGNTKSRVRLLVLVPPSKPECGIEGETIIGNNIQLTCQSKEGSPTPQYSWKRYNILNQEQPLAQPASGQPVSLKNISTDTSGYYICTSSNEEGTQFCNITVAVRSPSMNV
# T2: gpA33 on human cancer cells (human, UniProt Q99795 22-319)
# T2 sequence (looked up): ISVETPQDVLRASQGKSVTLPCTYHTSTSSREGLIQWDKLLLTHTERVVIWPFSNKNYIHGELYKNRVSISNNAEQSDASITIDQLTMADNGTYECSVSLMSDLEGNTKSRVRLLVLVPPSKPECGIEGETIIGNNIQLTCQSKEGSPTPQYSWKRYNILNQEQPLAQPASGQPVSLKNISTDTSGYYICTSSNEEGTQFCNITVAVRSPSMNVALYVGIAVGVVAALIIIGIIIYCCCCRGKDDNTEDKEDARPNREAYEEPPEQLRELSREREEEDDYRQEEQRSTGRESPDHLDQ
# How the values were obtained:
# human gpA33 = molecular target: T1, human gpA33; experiment: simultaneous-binding assay; group statement
# soluble CD3 fragment = molecular target: T3, soluble CD3 fragment (Homo sapiens (Human), UniProt P07766 23-127; P04234 22-101); experiment: sandwich plate assay titled 'shCD3 capture/gpA33 detection': soluble CD3 immobilized, diabody titrated, bound diabody detected with gpA33; the signal needs binding to both CD3 and gpA33
# T3 construct: copies: 1 + 1
# T3 sequence (P07766 other isoform, or with tags, fused parts or gaps limits assumed): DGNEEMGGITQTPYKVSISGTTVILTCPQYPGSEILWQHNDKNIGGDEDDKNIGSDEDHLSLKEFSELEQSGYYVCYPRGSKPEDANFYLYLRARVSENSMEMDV
# Protocol: The detection of binding was assessed by the capacity of immobilized antibodies to additionally bind gpA33.
# [1] = molecular target: T2, gpA33 on human cancer cells; experiment: cell-based or functional assay
Binder,binding result (human gpA33),EC50 (read off the curve) (soluble CD3 fragment) [ng/mL],"EC50 of redirected killing, ASPC-1 cells, E:T 10:1 [1] [ng/mL]","EC50 of redirected killing, Colo205 cells, E:T 10:1 [1] [ng/mL]","EC50 of redirected killing, Colon CSLC cells, human PBMC E:T 25:1 [1] [ng/mL]"
gpA33 × CD3 bi-specific monovalent diabody having an IgG Fc Domain version 2 (DART-2 w/Fc Version 2) (bispecific antibody) chain 1: DKTHTCPPCPAPEAAGGPSVFLFPPKPKDTLMISRTPEVTCVVVDVSHEDPEVKFNWYVDGVEVHNAKTKPREEQYNSTYRVVSVLTVLHQDWLNGKEYKCKVSNKALPAPIEKTISKAKGQPREPQVYTLPPSREEMTKNQVSLWCLVKGFYPSDIAVEWESNGQPENNYKTTPPVLDSDGSFFLYSKLTVDKSRWQQGNVFSCSVMHEALHNHYTQKSLSLSPGKAPSSSPMEDIQLTQSPSFLSASVGDRVTITCSARSSISFMYWYQQKPGKAPKLLIYDTSNLASGVPSRFSGSGSGTEFTLTISSLEAEDAATYYCQQWSSYPLTFGQGTKLEIKGGGSGGGGEVQLVESGGGLVQPGGSLRLSCAASGFTFSTYAMNWVRQAPGKGLEWVGRIRSKYNNYATYYADSVKDRFTISRDDSKNSLYLQMNSLKTEDTAVYYCVRHGNFGNSYVSWFAYWGQGTLVTVSSGGCGGGKVAALKEKVAALKEKVAALKEKVAALKE chain 2: QAVVTQEPSLTVSPGGTVTLTCRSSTGAVTTSNYANWVQQKPGQAPRGLIGGTNKRAPWTPARFSGSLLGGKAALTITGAQAEDEADYYCALWYSNLWVFGGGTKLTVLGGGGSGGGGQVQLVQSGAEVKKPGASVKVSCKASGYTFTGSWMNWVRQAPGQGLEWIGRIYPGDGETNYNGKFKDRVTITADKSTSTAYMELSSLRSEDTAVYYCARIYGNNVYFDVWGQGTTVTVSSGGCGGGEVAALEKEVAALEKEVAALEKEVAALEK chain 3: not shown,binds,,,,
"gpA33 × CD3 bi-specific monovalent diabody (DART-1) (bispecific antibody, Disulfide-bonded heterodimer with murine anti-gpA33 variable domains; also called gpA33 × CD3 DART 1) chain 1: QAVVTQEPSLTVSPGGTVTLTCRSSTGAVTTSNYANWVQQKPGQAPRGLIGGTNKRAPWTPARFSGSLLGGKAALTITGAQAEDEADYYCALWYSNLWVFGGGTKLTVLGGGGSGGGGQVQLQQSGPELVKPGASVKISCKASGYTFSGSWMNWVKQRPGQGLEWIGRIYPGDGETNYNGKFKDKATLTADKSSTTAYMELSSLTSVDSAVYFCARIYGNNVYFDVWGAGTTVTVSSGGCGGGEVAALEKEVAALEKEVAALEKEVAALEK chain 2: QIVLTQSPAIMSASPGERVTMTCSARSSISFMYWYQQKPGSSPRLLIYDTSNLASGVPVRFSGSGSGTSYSLTISRMEAEDAATYYCQQWSSYPLTFGSGTKLELKRGGGSGGGGEVQLVESGGGLVQPGGSLRLSCAASGFTFNTYAMNWVRQAPGKGLEWVARIRSKYNNYATYYADSVKDRFTISRDDSKNSLYLQMNSLKTEDTAVYYCVRHGNFGNSYVSWFAYWGQGTLVTVSSGGCGGGKVAALKEKVAALKEKVAALKEKVAALKE",,~200,1.14,0.585,0.901
